Source: the DeepSol protein solubility set

Assay: soluble on expression in E. coli; label from the status in PepcDB or PDB records

Row | Sequence | soluble on expression in E. coli
1 | HYRRHSVESKLARAALDGMTAVMISDASLRIIMVNQEFENMMGYSTEQVKGSNAHSLILLPEDLEETLNIWNKLGRENVWEGEVRCRTQLNHVFTAIMRIQANLTKSGKISYYITSLVDISE | not soluble
2 | IEPEFIGNENYKNLIVSWGTTYYPIKDALEELNLKDTAFIHFSQIYPISESGEKYLKKAEKVVNIELNYTGQLGRLLKREFGIEMNDSILKYDGRVFSVEELSEKIKKVLRG | not soluble
3 | IFPFKEPPMALEKHGTCLCGDTRLTVTVDNTHISACHCSMCRKWTGGPLLVVHCSKPPLIEGRAPSVYDSSDWAQRAFCGRCGTHLYYRLKANDFHAVPVGLLDGDQAWDFDLQIFVEEKPAWYCFANQTKELSGQE | not soluble
4 | IGAWGYNVGFNLYDSKTVVTKYHNESKIILKSDGTNNYYEGYEIGSIWGYVTDGYYTADDFEDTNTWKLKEGVVTVDGVSPRPGDIKYQNLRDDGSSTNRIDTGDGTFDNPGDRKIIGNNSLRLQYGINLGVNYKGFDLSVLLQGVGKRDVWISDARRWPFNSGQFGSLFKDQLDYWKPVDSANGDWTAANPNAEYFRIYGQGNNSSYNTRAQTKYLMNGSYLRVKNVTLSYNFPKSWLAPITLTSLKAFVSCENLHTFTKLMKGYDPERLSWGYPFYRTISFGFNVTL | not soluble
5 | IGEVDLTVRANMTYSKNEIKEYDEENSRYPYKMKYGFRVDQARGLIAEGLFKDYEEIRNRPSQGSGIMPGDIKYKDVNGDGVINGDDEVPIGATTRPNLIYGFGVSAQWKEFDINVHFQGAGKSSFFIDGFTVYPFQEKSWGNILTDVVGNYWSLGTNEDPNAKYPRLSYGGNSNNYRASTYWLRNGSYIRLKNVELGYNIPKRFVNKLHLDRVRLYLMGTNLLTFSDFKLWDPELGSSNGQQYPLSRTVTIGLTVGI | not soluble
6 | IGFRFDDSKGTVFIDGDVEEITGYSTEDFLSHRVKWADLVLPEDQYLIFERINRSVSNPDHSIETEYRIKRKNGEIRWIREFLQKFPEESKNSRQFQGFIHDITGRKKA | not soluble
7 | IGQVDFGIAGNFSYNKNEILDLGGGDPNKYLDATDGYSQRNKVGEAMNSYYIYRADGFFNSQEEADAYTAKYGNPFGKTFKAGDLRYVDTNKDGKLTADDREYCGSSDPKIIYGFNINAGWKGIDLSLMFNGAAGVKRLFDGYEVYGNFSGDAAHPATIWRDAWTPDNHDASMPRIFYDTNSASSSRSVQSDFWLQDTSYLRLKNLQLGYTLPKGWLNSVGVENIRIYYSVENLLTFDKMKINIDPESTSQRLSSYPLLRTHAFGVNVTF | not soluble
8 | IKKPMSASALFVQDHRPQFLIENPKTSLEDATLQIEELWKTLSEEEKLKYEEKATKDLERYNSQMKRAIEQESQMSLKD | soluble
9 | IPELKDHLRIFRPRKLTLKGYRQHWVVFKETTLSYYKSQDEAPGDPIQQLNLKGCEVVPDVNVSGQKFCIKLLVPSPEGMSEIYLRCQDEQQYARWMAGCRLASKGRTMADSSYTSEVQAILAFLSLQRT | soluble
10 | IQILSKSKLEKCEKTSDSGNLNCSTKIVLNLAVPSGSSGGEASIVAEIVEVEDNSSSNMQTVRIPPVITVNKSAAYALYDLTYIRDVPYKPQEYHVTTRKCEPDAGPDIVQICERLRDEKGNVLEQTQPICCPCGPQRRMPSSCGDIFDKMIKGKANTAHCLRFPGDWFHVFGIGQRSLGFSVRVELKTGTRVSEVIIGPENRTATANDNFLKVNLIGDFGGYTSIPSFEDFYLVIPREAAEAGQPGSLGANYSMWMLLERVRFTLDGLECNKIGVGYEAFNTQPNFCSSPYWSCLHNQLWNFRESDINRIDRHQLPLYGLEGRFERINQHPNAGPHSFSIGVTETLNTNLMIELRADDIEYVFQRSPGKIINIAIPTFEALTQFGVAAVIIKNTGEVEASYSLTFDCSKGVAFVEEQFFIIKPKAVTTRSFKLYPTKDQAAKYICTAILKDSQFSEVDRAECQFSTTATVLDNGTQVTNPFQIPETQPKGFFDSIRILWTKIINGLVDFITGDTCRNKCSSFFDFSCHIQYVCLS | not soluble
11 | ITDNTLIRNDTGDGDAVYDLVLNADGLDEDYSYQLKVMEEQPSDKQANELFTQAKKEIDDSFCEENQSVEQVRGHVIMKDAYASGAVEAEWTLSDYDVVDINGDVNQDAFEEADDEQGKLISASVELSCGEHRQLYDFSFVVFPDELEAGERLIKDINRHIDSEMSKTGTKKLTLPDEVDGVKLSWSQEKSNTAAKIAMLEVVVIVLLVLEKKEKKKTAQKERNIQLQLEYPEIVSKMAVLMGSGMTVEQAWNRITARYLDERKNNDKNIMPAYEEMLVTEREISDGVTGRKAYAGFAERVKLPCYQKLVRIILQSIHKGSKGVCEMLEKESEDAFDERRLLALKLGEEAGTKM | not soluble
12 | ITEQTGQLVYDYNIEKDIADVAGNIEELTGFTSEELGNINLKLWTSRIHPEDLNRFLENHKKYLEPDRKSYRIEYRFRKKNGEYIYLEENWVSPEGDRKSSVKRVLGVIKNITERKQA | not soluble
13 | ITLAVKVGMIQLCGCSGCHISLLDLHDKLLEVLPNLEIVYAPIIADPKEIPEGIDVFLVEGGIRNEHDEHLIHEIREKSKIVIAWGTCAAYGGIPGLGNLYKKEELLNYVYSTDSTENKGEIPSEEIPPLEEYVKPIKDFIKVDYTIPGCPPTPKMIADAIIALLNGEEPKLPTKIVC | not soluble
14 | KADNSSVEKLVVQVQQLDPVKGNKDVGTVEITESAYGLVFTPHLHGLAQGLHGFHIHQNPSCEPKEKDGKLVAGLGAGGHWDPKETKQHGYPWSDNAHLGDLPALFVEHDGSATNPVLAPRLKKLDEVKGHSLMIHEGGDNHSDHPAPLGGGGPRMACGVIK | soluble
15 | KALVSIQASNIPKTAYTATDFVDMNSYSYNNITTSLPGNYADFAVIEVNLNLKNQRDQQILHDFVKPAIKAYKALGDTLELFSAKPLNQFIEQNYYLLGYPVINKGNNTANLLLAQQKSFDHNNSDHNQKSQWFTK | not soluble
16 | KANFQWETGFTFSVNKNTIKKLYGEYETIVDALGNTIVKERDDVTNGWFIGHPVSAIWDYKVTGIWQKDEVKEAAKYSQRPGDPKVQNIYTDDDKVNADGSVTPVYNNKDKQFMGETTPPIHWSLRNSFTIFKDWVFSFNMYSYMGHKSLDTNYLNNDNNYSQITNCRNVYTKEYWTVDNPSNTYARLSAQGPTGISAPARVIDRSFIRLENISLAYNIPMKFLEKYKIQNAKIFTTVRNVATWSKEWEYGDPETGGLAPRTYSLGINLTF | not soluble
17 | KELIMCLSGSILRSATQQYSVGDYIEINGLRGRVVDINLLNTLMMQVGPNPLVGQLAGTTVSFPNSLLLSHPVRRDNILGDYVIHTVEIPVPIHLDSDEAVCRLKAVLEPLCAPYIPAIQRHLENVQAEKLFITPAARPRVTRVPYDDKAYRIIVRFASPVSKRLEIQQAVMDEFLRVQYRLLNHPAGSETL | not soluble
18 | KETKTTVHKFGLEPPSELIQKQLRANLDDDIWEVIRSRKIDGEHVILDKDYFFRKHVPHLTKEICENSIYEYIEGELGLSISYAQKEIVAEPCTDEDRELLDLRGYDHMVVVRNYVFLEDTSLFQYTESRHRL | not soluble
19 | KETVPYQIPYTPSELEELQQNIKLELEGKEQELALELLNYLNEKGFLSKSVEEISDVLRCSVEELEKVRQKVLRLE | soluble
20 | KGFSSEDKGEWKLKLDASGNGQAVIRFLPAKTDDALPFAILVNHGFKKNGKWYIETCSSTHGDYDSCPVCQYISKNDLYNTNKTEYSQLKRKTSYWANILVVKDPQAPDNEGKVFKYRFGKKIWDKINAMIAVDTEMGETPVDVTCPWEGANFVLKVKQVSGFSNYDESKFLNQSAIPNIDDESFQKELFEQMVDLSEMTSKDKFKSFEELNTKFNQVLGTAALGGAAAAAAS | soluble
21 | KHPNNAIIIGDNLDALKLLKSAYSEKIKMIYIDPPYNTGNDEFIYPDNFRQDYQKILREVGLMEIDENGKEIESESLKFFKNTQGSGTHSGWLSFMLPRLKLARDLLKEDGVIFISIDDNECANLKILCDEIFGEDNFVGDFIRKTKSTTNDAKIGLNYQHEFLLCYAKDKNYTNLLGGEKNLENYKNPDNDPNGAWINDNPSAKSGNMKTGYFGVTNPYTNKVDYPPVGMFWRFSQNTIQKHIDEGRICFKKEHKDNERGFIYKRYLKDLKTTQKTFDSLIFSDNCYMNQAATKELLNLGMGEYFTYPKGVEFMKKIILHSTTPNEGDIILDFFAGSGTTVHAVMELNAEDKGNREFILVQIDEEIKEDESAYDFCKKELKSAKPVISDITIERVKRAAQKISQLSKDSGLDLGFKVYTLQDKVQII | not soluble
22 | KIPEFRDVLISTIGGPHAKLGYEIARALVEDKSGRIKLLYVGSSEKEREKAEKVFEEAMEILNGLNVEREFAISSSPSDVVAREAESFDLVIVGASERTFLKNFLTGLFPEKVVMKTSKTVAMTRKWVGLLNR | not soluble
23 | KKAQLIVAGIGPGSPEDITPAVIQAVKNSDVVIGYKYYFQFIEPYLEPGTECIDTGMKREKARAEQAFELAEQGKTVCVISSGDAGIYGMAPLVYEMKRERGSRVEIEVLPGIS | not soluble
24 | KKHTGYVGLKNQGATCYMNSLLQTLFFTNQLRKAVYMMPTEGDDSSKSVPLALQRVFYELQHSDKPVGTKKLTKSFGWETLDSFMQHDVQELCRVLLDNVENKMKGTCVEGTIPKLFRGKMVSYIQCKEVDYRSDRREDYYDIQLSIKGKKNIFESFVDYVAVEQLDGDNKYDAGEHGLQEAEKGVKFLTLPPVLHLQLMRFMYDPQTDQNIKINDRFEFPEQLPLDEFLQKTDPKDPANYILHAVLVHSGDNHGGHYVVYLNPKGDGKWCKFDDDVVSRCTKEEAIEHNYGGHDDDLSVRHCTNAYMLVYIRESKLSEVLQAVTDHDIPQQLVERLQEEKRIEAQKRKERQE | soluble
25 | KKILVIGDLIADYYLWGKSERLSPEAPVPVLEVQRESKNLGGAANVANNLISLKAKVFLCGVVGDDLEGEHFISALKARGIDASGILIDKTRCTTLKTRIIAQNQQIARVDKEIKDPLNADLRKKLLDFFTEKIQEIDGVILSDYNKGVLDFELTQAMIALANQHHKLILCDPKGKDYSKYSHASLITPNRTELEHALHLKLDSHANLSKALQILKETYHIAMPLVTLSEQGIAFLEKGELVNCPTIAKEVYDVTGAGDTVIASLTLSLLESMSLKDACEFANAAAAVVVGKMGSALASLEEIALILNQTHPKILSLE | not soluble
26 | KKKPLIGMVHLKPLPGSYHYNDNFDDIVDFAIKEAKKLEEAGFDAVMIENFGDAPFKKEADKITIASMAVIAKAIKEEVSLPLGINILRNDAIGAYSIAYVVKADFIRVNVLSGVAFTDQGIIEGKAYELAKLKKLLPSKIKVFADVHVKHAYHFIDFESSLLDTVERGLADAVIISGKRTGKEVDIEKLKLAKELVDVPVIVGSGTNYNNLRILWSYADGFIIGTWIKKDGKANNEIDIDRAKKIVNLANKLKM | not soluble
27 | KKLLLIGAGRISYYLLNILKNNRIKVKLIEQKMDRAQTFSQVFPEVSVILGDGTAKDLLLEESAASYDAVATLTGVDEENIITSMFLESLGVHKNITKVNRTSLLEIVDTRETTTIVTPKSIAVDTVMHFVRGHYNA | not soluble
